Measured values: PMC2912072

Biological target: human BKCa (Slo1) RCK1 domain (322IIE...HDP667) carrying the D362A/367A mutations (human)
Test: SEC

stoichiometry N: > 16
Substance: human BKCa (Slo1) RCK1 domain (322IIE...HDP667) carrying the D362A/367A mutations (domain or fragment)
